The numbers were not newly measured in patent US20130145495A1, “ENHANCED CARBON FIXATION IN PHOTOSYNTHETIC HOSTS” (DONALD DANFORTH PLANT SCIENCE CENTER, priority 2010, published 2013), which cites them from elsewhere.

B1: hCAIV: human α-carbonic anhydrase isoenzyme IV, membrane (protein, UniProt P22748 19-284, looked up)
Carbonic anhydrase 4: AESHWCYEVQAESSNYPCLVPVKWGGNCQKDRQSPINIVTTKAKVDKKLGRFFFSGYDKKQTWTVQNNGHSVMMLLENKASISGGGLPAPYQAKQLHLHWSDLPYKGSEHSLDGEHFAMEMHIVHEKEKGTSRNVKEAQDPEDEIAVLAFLVEAGTQVNEGFQPLVEALSNIPKPEMSTTMAESSLLDLLPKEEKLRHYFRYLGSLTTPTCDEKVVWTVFREPIQLHREQILAFSQKLYYDKEQTVSMKDNVRPLQQLGQRTVIKS
B2: hCAVB: human α-carbonic anhydrase isoenzyme VB, mitochondria (protein, UniProt Q9Y2D0 34-317, looked up)
Carbonic anhydrase 5B, …: CSLYTCTYKTRNRALHPLWESVDLVPGGDRQSPINIRWRDSVYDPGLKPLTISYDPATCLHVWNNGYSFLVEFEDSTDKSVIKGGPLEHNYRLKQFHFHWGAIDAWGSEHTVDSKCFPAELHLVHWNAVRFENFEDAALEENGLAVIGVFLKLGKHHKELQKLVDTLPSIKHKDALVEFGSFDPSCLMPTCPDYWTYSGSLTTPPLSESVTWIIKKQPVEVDHDQLEQFRTLLFTSEGEKEKRMVDNFRPLQPLMNRTVRSSFRHDYVLNVQAKPKPATSQATP
B3: hCAXII: human α-carbonic anhydrase isoenzyme XII, transmembrane (protein, UniProt O43570 25-354, looked up)
Carbonic anhydrase 12: APVNGSKWTYFGPDGENSWSKKYPSCGGLLQSPIDLHSDILQYDASLTPLEFQGYNLSANKQFLLTNNGHSVKLNLPSDMHIQGLQSRYSATQLHLHWGNPNDPHGSEHTVSGQHFAAELHIVHYNSDLYPDASTASNKSEGLAVLAVLIEMGSFNPSYDKIFSHLQHVKYKGQEAFVPGFNIEELLPERTAEYYRYRGSLTTPPCNPTVLWTVFRNPVQISQEQLLALETALYCTHMDDPSPREMINNFRQVQKFDERLVYTSFSQVQVCTAAGLSLGIILSLALAGILGICIVVVVSIWLFRRKSIKKGDNKGVIYKPATKMETEAHA
B4: hCAVII: human α-carbonic anhydrase isoenzyme VII, cytosol (protein, UniProt P43166 1-264, looked up)
Carbonic anhydrase 7: MTGHHGWGYGQDDGPSHWHKLYPIAQGDRQSPINIISSQAVYSPSLQPLELSYEACMSLSITNNGHSVQVDFNDSDDRTVVTGGPLEGPYRLKQFHFHWGKKHDVGSEHTVDGKSFPSELHLVHWNAKKYSTFGEAASAPDGLAVVGVFLETGDEHPSMNRLTDALYMVRFKGTKAQFSCFNPKCLLPASRHYWTYPGSLTTPPLSESVTWIVLREPICISERQMGKFRSLLFTSEDDERIHMVNNFRPPQPLKGRVVKASFRA
B5: hCAVA: human α-carbonic anhydrase isoenzyme VA, mitochondria (protein, UniProt P35218 39-305, looked up)
Carbonic anhydrase 5A, …: CAWQTSNNTLHPLWTVPVSVPGGTRQSPINIQWRDSVYDPQLKPLRVSYEAASCLYIWNTGYLFQVEFDDATEASGISGGPLENHYRLKQFHFHWGAVNEGGSEHTVDGHAYPAELHLVHWNSVKYQNYKEAVVGENGLAVIGVFLKLGAHHQTLQRLVDILPEIKHKDARAAMRPFDPSTLLPTCWDYWTYAGSLTTPPLTESVTWIIQKEPVEVAPSQLSAFRTLLFSALGEEEKMMVNNYRPLQPLMNRKVWASFQATNEGTRS
B6: hCAVI: human α-carbonic anhydrase isoenzyme VI, secreted (protein, UniProt P23280 18-308, looked up)
Carbonic anhydrase 6: QHVSDWTYSEGALDEAHWPQHYPACGGQRQSPINLQRTKVRYNPSLKGLNMTGYETQAGEFPMVNNGHTVQISLPSTMRMTVADGTVYIAQQMHFHWGGASSEISGSEHTVDGIRHVIEIHIVHYNSKYKSYDIAQDAPDGLAVLAAFVEVKNYPENTYYSNFISHLANIKYPGQRTTLTGLDVQDMLPRNLQHYYTYHGSLTTPPCTENVHWFVLADFVKLSRTQVWKLENSLLDHRNKTIHNDYRRTQPLNHRVVESNFPNQEYTLGSEFQFYLHKIEEILDYLRRALN
B7: hCAXV: α-carbonic anhydrase isoenzyme XV, membrane (protein, UniProt Q99N23 19-324, looked up)
Carbonic anhydrase 15: VDSSGTWCYDSQDPKCGPAHWKELAPACGGPTQSPINIDLRLVQRDYTLKPFIFQGYDSAPQDPWVLENDGHTVLLRVNSCQQNCPAIRGAGLPSPEYRLLQLHFHWGSPGHQGSEHSLDEKHGSMEMHMVHMNTKYQSMEDARSQPDGFAILAVLLVEEDRDNTNFSAIVSGLKNLSSPGVAVNLTSTFALASLLPSALRLLRYYRYSGSLTTPGCEPAVLWTVFENTVPIGHAQVVQFQAVLQTGPPGLHPRPLTSNFRPQQPLGGRRISASPEASVRSSVSTLPCLHLALVGLGVGLRLWQGP
B8: hCAXIV: human α-carbonic anhydrase isoenzyme XIV, transmembrane (protein, UniProt Q9ULX7 16-337, looked up)
Carbonic anhydrase 14: ADGGQHWTYEGPHGQDHWPASYPECGNNAQSPIDIQTDSVTFDPDLPALQPHGYDQPGTEPLDLHNNGHTVQLSLPSTLYLGGLPRKYVAAQLHLHWGQKGSPGGSEHQINSEATFAELHIVHYDSDSYDSLSEAAERPQGLAVLGILIEVGETKNIAYEHILSHLHEVRHKDQKTSVPPFNLRELLPKQLGQYFRYNGSLTTPPCYQSVLWTVFYRRSQISMEQLEKLQGTLFSTEEEPSKLLVQNYRALQPLNQRMVFASFIQAGSSYTTGEMLSLGVGILVGCLCLLLAVYFIARKIRKKRLENRKSVVFTSAQATTEA
B9: hCAIII: human α-carbonic anhydrase isoenzyme III, cytosol (protein, UniProt P07451 2-260, looked up)
Carbonic anhydrase 3: AKEWGYASHNGPDHWHELFPNAKGENQSPVELHTKDIRHDPSLQPWSVSYDGGSAKTILNNGKTCRVVFDDTYDRSMLRGGPLPGPYRLRQFHLHWGSSDDHGSEHTVDGVKYAAELHLVHWNPKYNTFKEALKQRDGIAVIGIFLKIGHENGEFQIFLDALDKIKTKGKEAPFTKFDPSCLFPACRDYWTYQGSFTTPPCEECIVWLLLKEPMTVSSDQMAKLRSLLSSAENEPPVPLVSNWRPPQPINNRVVRASFK

The data set has as its system carbonic anhydrase.
For “hCAI: human α-carbonic anhydrase isoenzyme I, cytosol”, the Kcat is 200000 s⁻¹.

Consider “hCAXIII: human α-carbonic anhydrase isoenzyme XIII, cytosol”, for which the Kcat is 150000 s⁻¹.

As for B1, the Kcat is 1e+06 s⁻¹.

With B2, the Kcat was 950000 s⁻¹.

With B3, the Kcat is 420000 s⁻¹.

Regarding B4, the Kcat was 950000 s⁻¹.

B5: the Kcat was 290000 s⁻¹.

With B6, the Kcat is 340000 s⁻¹.

Consider B7, for which the Kcat is 470000 s⁻¹.

B8: the Kcat was 310000 s⁻¹.

For B9, the Kcat is 10000 s⁻¹.
